# Laboratory results reported in publication PMC5990521, “Structural basis of DUX4/IGH-driven transactivation”.
# B1: biotin-DNA-DRE (BLI) (dsDNA)
# DNA 1: TTCTAATCTAATCA
# DNA 2: TGATTAGATTAGAA
# modifications: biotin
# Legend:
# Assay in all cases: BLI; BLI on Octet Red 96, biotin-DNA-DRE on SA sensors, protein 0.5-32 uM (HD2) or 0.25-16 uM (HD1-HD2); buffer, salt, pH and temperature not given in the material
# DUX4 HD2 N144E = DUX4 HD2 N144E (human, UniProt Q9UBX2 94-153, N144E); details: protein: recombinant; tags: N-terminal His-tag, removed with thrombin; blunt
# Chain of DUX4 HD2 N144E (Q9UBX2 94-153 N144E): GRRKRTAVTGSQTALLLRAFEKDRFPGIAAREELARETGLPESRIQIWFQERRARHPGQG
# DUX4 HD2 Q143E = DUX4 HD2 Q143E (human, UniProt Q9UBX2 94-153, Q143E); details: protein: recombinant; tags: N-terminal His-tag, removed with thrombin; blunt
# Chain of DUX4 HD2 Q143E (Q9UBX2 94-153 Q143E): as the sequence (Q9UBX2 94-153 N144E) above, with Q50E, E51N counted along it
# DUX4 HD2 R148E = DUX4 HD2 R148E (human, UniProt Q9UBX2 94-153, R148E); details: protein: recombinant; tags: N-terminal His-tag, removed with thrombin; blunt
# Chain of DUX4 HD2 R148E (Q9UBX2 94-153 R148E): as the sequence (Q9UBX2 94-153 N144E) above, with E51N, R55E counted along it
# DUX4 HD2 R98A = DUX4 HD2 R98A (human, UniProt Q9UBX2 94-153, R98A); details: protein: recombinant; tags: N-terminal His-tag, removed with thrombin; blunt
# Chain of DUX4 HD2 R98A (Q9UBX2 94-153 R98A): as the sequence (Q9UBX2 94-153 N144E) above, with R5A, E51N counted along it
# DUX4 HD2 R96A = DUX4 HD2 R96A (human, UniProt Q9UBX2 94-153, R96A); details: protein: recombinant; tags: N-terminal His-tag, removed with thrombin; blunt
# Chain of DUX4 HD2 R96A (Q9UBX2 94-153 R96A): as the sequence (Q9UBX2 94-153 N144E) above, with R3A, E51N counted along it
# DUX4 HD1-HD2 = DUX4 HD1-HD2 (human, UniProt Q9UBX2 19-153); details: protein: recombinant; blunt
# Chain of DUX4 HD1-HD2 (Q9UBX2 19-153): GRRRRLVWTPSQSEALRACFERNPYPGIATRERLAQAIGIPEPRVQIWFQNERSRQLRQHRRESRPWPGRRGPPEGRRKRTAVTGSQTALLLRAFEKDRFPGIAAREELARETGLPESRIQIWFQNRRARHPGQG
# DUX4 HD2 K97A = DUX4 HD2 K97A (human, UniProt Q9UBX2 94-153, K97A); details: protein: recombinant; tags: N-terminal His-tag, removed with thrombin; blunt
# Chain of DUX4 HD2 K97A (Q9UBX2 94-153 K97A): as the sequence (Q9UBX2 94-153 N144E) above, with K4A, E51N counted along it
# DUX4 HD2 R95A = DUX4 HD2 R95A (human, UniProt Q9UBX2 94-153, R95A); details: protein: recombinant; tags: N-terminal His-tag, removed with thrombin; blunt
# Chain of DUX4 HD2 R95A (Q9UBX2 94-153 R95A): as the sequence (Q9UBX2 94-153 N144E) above, with R2A, E51N counted along it
binder,measurement,setting,value
B1,Kd,DUX4 HD2 N144E,55 µM
same,Kd,DUX4 HD2 Q143E,31 µM
same,Kd,DUX4 HD2 R148E,67 µM
same,binding result,DUX4 HD2 R98A,no binding
same,binding result,DUX4 HD2 R96A,no binding
same,Kd,DUX4 HD1-HD2,1400 nM
same,binding result,DUX4 HD2 K97A,no binding
same,binding result,DUX4 HD2 R95A,no binding
